Data from US20170210813A1.

How the values were obtained:
[1] = target: full length human PDGFR-beta on HEK293 cells (human) (UniProt P09619); experiment: cell-based or functional assay
[2] = target: Macaca fascicularis PDGFRb.mmh (Macaca fascicularis); experiment: SPR, mAb captured, 25 C
hPDGFRb.mmh (human) [3] = target: hPDGFRb.mmh (human) (UniProt P09619); experiment: SPR, mAb captured, 25 C
human PDGFRb.hFc (human) [4] = experiment: SPR, mAb captured, 25 C
[5] = target: Macaca fascicularis PDGFRb.mmh (Macaca fascicularis); experiment: SPR, mAb captured, 37 C
hPDGFRb.mmh (human) [6] = target: hPDGFRb.mmh (human) (UniProt P09619); experiment: SPR, mAb captured, 37 C
human PDGFRb.hFc (human) [7] = experiment: SPR, mAb captured, 37 C
hPDGFRb.mmh (human) [8] = target: hPDGFRb.mmh (human) (UniProt P09619); experiment: blocking ELISA, biot-hPDGFRb.mmh to coated PDGF-BB
hPDGFRb.mmh (human) [9] = target: hPDGFRb.mmh (human) (UniProt P09619); experiment: blocking ELISA, biot-hPDGFRb.mmh to coated PDGF-BB; average of three experiments
hPDGFRb.mmh (human) [10] = target: hPDGFRb.mmh (human) (UniProt P09619); experiment: Octet BLI cross-competition, 25 C; hPDGFRb.mmh on anti-Penta-His tips pre-saturated with mAb-1 H4H3099S (row 6)
hPDGFRb.mmh (human) [11] = target: hPDGFRb.mmh (human) (UniProt P09619); experiment: Octet BLI cross-competition, 25 C; hPDGFRb.mmh on anti-Penta-His tips pre-saturated with mAb-1 H4H3107S (row 7)
hPDGFRb.mmh (human) [12] = target: hPDGFRb.mmh (human) (UniProt P09619); experiment: Octet BLI cross-competition, 25 C; hPDGFRb.mmh on anti-Penta-His tips pre-saturated with mAb-1 H4H3305N (row 8)
hPDGFRb.mmh (human) [13] = target: hPDGFRb.mmh (human) (UniProt P09619); experiment: Octet BLI cross-competition, 25 C; hPDGFRb.mmh on anti-Penta-His tips pre-saturated with mAb-1 H4H3310N (row 9)
hPDGFRb.mmh (human) [14] = target: hPDGFRb.mmh (human) (UniProt P09619); experiment: Octet BLI cross-competition, 25 C; hPDGFRb.mmh on anti-Penta-His tips pre-saturated with mAb-1 Control I (row 1); self-competition

hPDGFRb.mmh (human), sequence (P09619 other isoform, or with tags, fused parts or gaps): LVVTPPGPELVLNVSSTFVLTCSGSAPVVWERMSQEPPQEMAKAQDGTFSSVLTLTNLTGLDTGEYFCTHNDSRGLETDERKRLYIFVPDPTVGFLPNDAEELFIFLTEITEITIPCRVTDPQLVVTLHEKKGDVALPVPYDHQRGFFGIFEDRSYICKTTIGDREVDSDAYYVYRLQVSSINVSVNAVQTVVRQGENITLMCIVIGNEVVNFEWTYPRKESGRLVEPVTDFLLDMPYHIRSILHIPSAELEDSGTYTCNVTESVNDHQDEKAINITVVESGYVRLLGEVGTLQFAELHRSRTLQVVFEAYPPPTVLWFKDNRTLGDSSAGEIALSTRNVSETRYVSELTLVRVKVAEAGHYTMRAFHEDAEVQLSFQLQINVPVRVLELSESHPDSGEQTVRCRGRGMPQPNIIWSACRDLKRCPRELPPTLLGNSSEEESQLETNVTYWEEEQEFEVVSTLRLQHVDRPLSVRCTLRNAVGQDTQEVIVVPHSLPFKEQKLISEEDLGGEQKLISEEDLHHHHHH
Macaca fascicularis PDGFRb.mmh (Macaca fascicularis), sequence (chain, as listed by the source): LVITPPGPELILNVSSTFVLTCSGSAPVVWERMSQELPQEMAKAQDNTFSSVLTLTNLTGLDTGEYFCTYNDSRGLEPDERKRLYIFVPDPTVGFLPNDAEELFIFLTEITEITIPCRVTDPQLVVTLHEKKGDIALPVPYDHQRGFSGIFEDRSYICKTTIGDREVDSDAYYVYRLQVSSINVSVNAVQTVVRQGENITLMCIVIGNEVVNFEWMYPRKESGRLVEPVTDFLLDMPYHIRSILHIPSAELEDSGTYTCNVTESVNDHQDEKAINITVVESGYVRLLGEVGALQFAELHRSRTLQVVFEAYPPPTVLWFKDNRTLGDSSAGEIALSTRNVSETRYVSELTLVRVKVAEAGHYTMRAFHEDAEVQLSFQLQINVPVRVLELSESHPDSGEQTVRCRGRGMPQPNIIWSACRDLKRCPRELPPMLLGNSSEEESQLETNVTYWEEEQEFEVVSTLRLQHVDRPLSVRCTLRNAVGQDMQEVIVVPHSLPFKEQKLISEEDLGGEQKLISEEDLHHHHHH
full length human PDGFR-beta on HEK293 cells (human), sequence (P09619 33-1106 limits assumed): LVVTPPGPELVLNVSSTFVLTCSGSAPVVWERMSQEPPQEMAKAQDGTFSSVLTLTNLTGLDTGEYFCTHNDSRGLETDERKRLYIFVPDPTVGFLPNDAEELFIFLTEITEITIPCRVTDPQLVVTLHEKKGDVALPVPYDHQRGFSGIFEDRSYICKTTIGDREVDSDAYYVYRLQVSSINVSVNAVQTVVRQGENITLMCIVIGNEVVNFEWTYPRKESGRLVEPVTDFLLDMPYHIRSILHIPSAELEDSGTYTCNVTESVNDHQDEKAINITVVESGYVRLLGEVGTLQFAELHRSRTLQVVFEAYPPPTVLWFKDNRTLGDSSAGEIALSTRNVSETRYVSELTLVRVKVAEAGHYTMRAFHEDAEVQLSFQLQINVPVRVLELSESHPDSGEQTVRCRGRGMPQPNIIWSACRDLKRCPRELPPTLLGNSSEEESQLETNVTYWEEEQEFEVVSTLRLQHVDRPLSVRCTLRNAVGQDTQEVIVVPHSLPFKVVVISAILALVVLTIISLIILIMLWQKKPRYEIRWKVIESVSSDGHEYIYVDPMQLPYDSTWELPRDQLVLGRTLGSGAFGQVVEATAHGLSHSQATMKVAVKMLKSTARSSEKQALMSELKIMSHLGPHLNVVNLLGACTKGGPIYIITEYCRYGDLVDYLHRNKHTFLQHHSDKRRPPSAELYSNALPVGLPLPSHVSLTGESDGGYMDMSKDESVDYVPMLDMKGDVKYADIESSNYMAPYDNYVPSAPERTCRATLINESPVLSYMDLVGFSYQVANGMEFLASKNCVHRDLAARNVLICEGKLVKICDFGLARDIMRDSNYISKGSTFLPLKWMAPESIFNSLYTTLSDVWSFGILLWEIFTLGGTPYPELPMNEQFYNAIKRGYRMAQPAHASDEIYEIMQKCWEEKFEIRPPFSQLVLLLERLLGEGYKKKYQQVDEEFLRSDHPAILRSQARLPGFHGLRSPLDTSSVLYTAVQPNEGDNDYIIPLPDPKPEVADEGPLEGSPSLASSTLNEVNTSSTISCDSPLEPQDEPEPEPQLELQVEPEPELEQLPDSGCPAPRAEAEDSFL
Control I (antibody), sequence (VH): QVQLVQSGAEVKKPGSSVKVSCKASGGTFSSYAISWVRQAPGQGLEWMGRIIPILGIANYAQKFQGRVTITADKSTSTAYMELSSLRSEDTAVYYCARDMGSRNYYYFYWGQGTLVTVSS
Control I (antibody), sequence (VL): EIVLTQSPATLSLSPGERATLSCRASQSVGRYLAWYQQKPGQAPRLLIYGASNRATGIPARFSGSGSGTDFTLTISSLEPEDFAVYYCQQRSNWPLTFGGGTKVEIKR

Isotype Ctrl (antibody)
Percent Internalization (Relative to Control I) [1]: 4%

Control I (antibody)
IC50, blocking PDGF-BB (250 pM) activation, SRE-luciferase [1]: 1.8e-10 M
IC50, blocking PDGF-DD (400 pM) activation, SRE-luciferase [1]: 1.8e-10 M
Percent Internalization (Relative to Control I) [1]: 100%
Kd [2]: 8.06 nM
koff [2]: 0.00243 s⁻¹
kon [2]: 302000 M⁻¹ s⁻¹
t1/2 [2]: 5 min
Kd (hPDGFRb.mmh (human) [3]): 12.6 nM
koff (hPDGFRb.mmh (human) [3]): 0.00349 s⁻¹
kon (hPDGFRb.mmh (human) [3]): 277000 M⁻¹ s⁻¹
t1/2 (hPDGFRb.mmh (human) [3]): 3 min
Kd (human PDGFRb.hFc (human) [4]): 0.278 nM
koff (human PDGFRb.hFc (human) [4]): 0.00015 s⁻¹
kon (human PDGFRb.hFc (human) [4]): 539000 M⁻¹ s⁻¹
t1/2 (human PDGFRb.hFc (human) [4]): 77 min
Kd [5]: 20.1 nM
koff [5]: 0.00982 s⁻¹
kon [5]: 489000 M⁻¹ s⁻¹
t1/2 [5]: 1.2 min
Kd (hPDGFRb.mmh (human) [6]): 32.5 nM
koff (hPDGFRb.mmh (human) [6]): 0.0146 s⁻¹
kon (hPDGFRb.mmh (human) [6]): 450000 M⁻¹ s⁻¹
t1/2 (hPDGFRb.mmh (human) [6]): 0.8 min
Kd (human PDGFRb.hFc (human) [7]): 0.27 nM
koff (human PDGFRb.hFc (human) [7]): 0.000217 s⁻¹
kon (human PDGFRb.hFc (human) [7]): 804000 M⁻¹ s⁻¹
t1/2 (human PDGFRb.hFc (human) [7]): 53 min
% Maximum Blocking (hPDGFRb.mmh (human) [8]): 92%
IC50 (hPDGFRb.mmh (human) [9]): 0.34 nM
Response of mAb-2 Binding to hPDGFRβ.mmh Pre-Complexed with mAb-1 (nm) (hPDGFRb.mmh (human) [10]): 0.34 nm
Response of mAb-2 Binding to hPDGFRβ.mmh Pre-Complexed with mAb-1 (nm) (hPDGFRb.mmh (human) [11]): 0.32 nm
Response of mAb-2 Binding to hPDGFRβ.mmh Pre-Complexed with mAb-1 (nm) (hPDGFRb.mmh (human) [12]): 0.34 nm
Response of mAb-2 Binding to hPDGFRβ.mmh Pre-Complexed with mAb-1 (nm) (hPDGFRb.mmh (human) [13]): 0.33 nm
Response of mAb-2 Binding to hPDGFRβ.mmh Pre-Complexed with mAb-1 (nm) (hPDGFRb.mmh (human) [14]): 0.05 nm
